Measured values reported in IntAct's records for PubMed 16488394.

B1: Actin nucleation-promoting factor WAS (Homo sapiens), P42768 (parent)
chain: MSGGPMGGRPGGRGAPAVQQNIPSTLLQDHENQRLFEMLGRKCLTLATAVVQLYLALPPGAEHWTKEHCGAVCFVKDNPQKSYFIRLYGLQAGRLLWEQELYSQLVYSTPTPFFHTFAGDDCQAGLNFADEDEAQAFRALVQEKIQKRNQRQSGDRRQLPPPPTPANEERRGGLPPLPLHPGGDQGGPPVGPLSLGLATVDIQNPDITSSRYRGLPAPGPSPADKKRSGKKKISKADIGAPSGFKHVSHVGWDPQNGFDVNNLDPDLRSLFSRAGISEAQLTDAETSKLIYDFIEDQGGLEAVRQEMRRQEPLPPPPPPSRGGNQLPRPPIVGGNKGRSGPLPPVPLGIAPPPPTPRGPPPPGRGGPPPPPPPATGRSGPLPPPPPGAGGPPMPPPPPPPPPPPSSGNGPAPPPLPPALVPAGGLAPGGGRGALLDQIRQGIQLNKTPGAPESSALQPPPQSSEGLVGALMHVMQKRSRAIHSSDEGEDQAGDEDEDDEWDD

Variants of: B1
Conditions: with wipf1_human WIPF1, O43516
Chain of wipf1_human WIPF1, O43516 (O43516 whole entry): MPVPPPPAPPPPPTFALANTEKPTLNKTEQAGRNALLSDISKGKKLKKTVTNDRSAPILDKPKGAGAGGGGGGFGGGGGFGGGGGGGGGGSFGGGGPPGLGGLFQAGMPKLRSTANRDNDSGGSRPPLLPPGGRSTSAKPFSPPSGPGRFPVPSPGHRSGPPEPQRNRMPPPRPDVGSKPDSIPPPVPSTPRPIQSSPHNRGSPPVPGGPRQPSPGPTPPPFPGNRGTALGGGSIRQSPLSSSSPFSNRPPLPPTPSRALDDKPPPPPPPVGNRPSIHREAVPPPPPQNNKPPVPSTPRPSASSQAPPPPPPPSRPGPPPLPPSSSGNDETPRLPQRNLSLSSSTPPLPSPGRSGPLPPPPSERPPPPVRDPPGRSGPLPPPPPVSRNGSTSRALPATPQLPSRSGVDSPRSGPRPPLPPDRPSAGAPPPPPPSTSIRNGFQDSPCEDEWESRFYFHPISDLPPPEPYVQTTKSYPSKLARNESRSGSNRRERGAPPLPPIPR

effect of a mutation on the interaction	Variant
decreasing interaction	MSGGPMGGRPGGRGAPAVQQNIPSTLLQDHENQRLFEMLGRKCLTLATAVVQLYLALPPGAEHWTKEHCGAVCFVKDNPQKSYFIRLYGLQAGRLLWEQELYSQLVYSTPTPFFHTFAGDDCQAGLNFADEDETQAFRALVQEKIQKRNQRQSGDRRQLPPPPTPANEERRGGLPPLPLHPGGDQGGPPVGPLSLGLATVDIQNPDITSSRYRGLPAPGPSPADKKRSGKKKISKADIGAPSGFKHVSHVGWDPQNGFDVNNLDPDLRSLFSRAGISEAQLTDAETSKLIYDFIEDQGGLEAVRQEMRRQEPLPPPPPPSRGGNQLPRPPIVGGNKGRSGPLPPVPLGIAPPPPTPRGPPPPGRGGPPPPPPPATGRSGPLPPPPPGAGGPPMPPPPPPPPPPPSSGNGPAPPPLPPALVPAGGLAPGGGRGALLDQIRQGIQLNKTPGAPESSALQPPPQSSEGLVGALMHVMQKRSRAIHSSDEGEDQAGDEDEDDEWDD [A134T]
